Biological target: Bcl-XL-126Bpa (UniProt Q07817)
Experiment: BLI

Sequence of UniProt Q07817 (Q07817 whole entry): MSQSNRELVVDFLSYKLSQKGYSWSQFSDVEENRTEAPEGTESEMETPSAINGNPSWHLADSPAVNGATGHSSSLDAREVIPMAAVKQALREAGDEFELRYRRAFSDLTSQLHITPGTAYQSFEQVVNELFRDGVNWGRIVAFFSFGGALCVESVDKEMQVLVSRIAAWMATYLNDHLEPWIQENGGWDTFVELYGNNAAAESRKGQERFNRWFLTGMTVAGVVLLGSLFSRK

“Bid-83Bpa (from UniProt P55957 1-195) (natural protein)” showed a Kd of 1770 nM.

Reference: article PMC12874534
